Paper PMC3467076

Molecular target: T1, SNI1 (Arabidopsis thaliana, UniProt Q9SWA6 1-432)
T1 sequence: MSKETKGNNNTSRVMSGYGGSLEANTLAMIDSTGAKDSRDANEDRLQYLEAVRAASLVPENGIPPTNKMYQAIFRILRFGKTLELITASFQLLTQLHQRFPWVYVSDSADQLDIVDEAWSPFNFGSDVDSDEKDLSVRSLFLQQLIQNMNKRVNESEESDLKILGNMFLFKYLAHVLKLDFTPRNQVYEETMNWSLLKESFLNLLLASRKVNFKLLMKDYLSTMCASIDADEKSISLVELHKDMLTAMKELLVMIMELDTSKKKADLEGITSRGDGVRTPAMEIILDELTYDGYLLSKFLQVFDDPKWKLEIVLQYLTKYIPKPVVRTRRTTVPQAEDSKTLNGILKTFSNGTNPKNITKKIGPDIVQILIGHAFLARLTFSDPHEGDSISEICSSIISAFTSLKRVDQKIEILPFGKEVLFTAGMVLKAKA
Experiment: EMSA

B1: E0-1-1 (dsDNA)
DNA 1: TAATAATGCTTAGTTATAAATTACT
DNA 2: AGTAATTTATAACTAAGCATTATTA
binding result: no binding
